B1: GS3319 (nucleic acid)
sense: GUGUUGAGACCUAAGAGCCUAUGAGUGAGUCACAUUACAACAGAAAGCCUCAAGUCUAAAGUCAUAACCUAUUAAAAUUCGAAAGCACAAAAACAUCCAUUAGGAACUGACUAAGUACAAGAGCUACUCCAUAAAAAUCAGUCGCAAUACAUGUUUUUGCAAAGCAGAUCAACCUGGUUAAGACGAGAAAUAACUUAGUAUUCAACGUAGCUAAAUCUCCAGGGUGUUAGUGUAGUAUAUUGACGUUUCCGAAAUAAUUAAAACCAGCAUCUUAGUUUGGUGUUAUUUGAUAUAUAUGAUAAGAUUCGUUUAGGAUUUAUUGGAAUUUAUUUGGCUGGUAUCUAAUGUAGAUUUGAUUGAUACCGUAUUAUCAAAUCAUUUUAU
antisense: AUAAAAUGAUUUGAUAAUACGGUAUCAAUCAAAUCUACAUUAGAUACCAGCCAAAUAAAUUCCAAUAAAUCCUAAACGAAUCUUAUCAUAUAUAUCAAAUAACACCAAACUAAGAUGCUGGUUUUAAUUAUUUCGGAAACGUCAAUAUACUACACUAACACCCUGGAGAUUUAGCUACGUUGAAUACUAAGUUAUUUCUCGUCUUAACCAGGUUGAUCUGCUUUGCAAAAACAUGUAUUGCGACUGAUUUUUAUGGAGUAGCUCUUGUACUUAGUCAGUUCCUAAUGGAUGUUUUUGUGCUUUCGAAUUUUAAUAGGUUAUGACUUUAGACUUGAGGCUUUCUGUUGUAAUGUGACUCACUCAUAGGCUCUUAGGUCUCAACAC
B2: GS3320 (nucleic acid)
sense: UUAUCAUGCUGCCAUGGUUCAUAAGAAAAAAAUUUACUAAGAUUAGUAGGGAUGCAUAGACCUAAUGACACGCCCAUAAAAGUUGUAUGGCUAUCCCAACCAUGUUCAGAAAGUAUCUCGAGACCAUGAAUGCUUCUAGAAAUAAGGCCAAGUACGAAAAAUGCGGUUCCUCUCAUGCUCAUUAUUUCAUGCGAUUCUGCAAUUUUAAUUAUGUUCUGCACGACAUCUGAUUUUUCAAGAAAAGGAGCACCCAAUUCCAUAGAUCCAACGUUACCUACAGCCCAUAGGCAUCCUUUAACCUUAAGAAUAAUCUCUAAAUCAUCAUAAUGCAUUCCAUAUUCACGAAUGGUUGAGGCAAAUUCAUCAAAAUGACCUUUAUCAUGCAAGAGCUU
antisense: AAGCUCUUGCAUGAUAAAGGUCAUUUUGAUGAAUUUGCCUCAACCAUUCGUGAAUAUGGAAUGCAUUAUGAUGAUUUAGAGAUUAUUCUUAAGGUUAAAGGAUGCCUAUGGGCUGUAGGUAACGUUGGAUCUAUGGAAUUGGGUGCUCCUUUUCUUGAAAAAUCAGAUGUCGUGCAGAACAUAAUUAAAAUUGCAGAAUCGCAUGAAAUAAUGAGCAUGAGAGGAACCGCAUUUUUCGUACUUGGCCUUAUUUCUAGAAGCAUUCAUGGUCUCGAGAUACUUUCUGAACAUGGUUGGGAUAGCCAUACAACUUUUAUGGGCGUGUCAUUAGGUCUAUGCAUCCCUACUAAUCUUAGUAAAUUUUUUUCUUAUGAACCAUGGCAGCAUGAUAA
B3: ES53: dsRNA trigger SEQ ID NO 114; gene target Hypotethicai effector (nucleic acid)
DNA: ACGATTATCGCCAATTGGGGTGATACTGTTGTAGTACATGTTACTAATTCATTAATGAATAATGGAACGAGCATTCATTTTCATGGACTCCGGCAATTCGAAACAAACCAAATGGATGGTCCAACATCAATAACACAGTGTCCCATAGCTCCCGGTGATAGTTTTACATATAGATGGGTTGCCTCTCAGTACGGAAGTTCATGGTACCATGCTCATTTCGCCGTAC
B4: GS3323 (nucleic acid)
sense: AGGCGUGGACUGUAGCCUCAAUAGCAUACACUGAAUCGAAUGAGUUGUCAGGAAAUGACAUUUGCAUAAAGUCACCCUUAACAAAGCUUAAUUGGUUUGAUAAGCCUUCUUUCUGUGCAUAUCUCGUGGCCCGCUCUAUUUGGUAAUCAUUGUUGUUCAAGCCAGUAAUAUGAGCGCCAGUAAACUUGGCGAUUUCUCUUGCCGGACCACCAACACCACAUCCGACAUCAAGUACUUUGUCUGCCUCAUUAAUGCCUAUCUUAGCGGCAAGAUAAUGUUCAUGUCGCGCAAUCGCUUGGUAAAAUGGUUCACCGUAAGCAAAUCUACAGAAGUGAAAAGAUUGUCCCCAGCCGUAUUCGUAAAGAUCGGUGCCGAGAUUAUAGUACUGUCUUGUCAAA
antisense: UUUGACAAGACAGUACUAUAAUCUCGGCACCGAUCUUUACGAAUACGGCUGGGGACAAUCUUUUCACUUCUGUAGAUUUGCUUACGGUGAACCAUUUUACCAAGCGAUUGCGCGACAUGAACAUUAUCUUGCCGCUAAGAUAGGCAUUAAUGAGGCAGACAAAGUACUUGAUGUCGGAUGUGGUGUUGGUGGUCCGGCAAGAGAAAUCGCCAAGUUUACUGGCGCUCAUAUUACUGGCUUGAACAACAAUGAUUACCAAAUAGAGCGGGCCACGAGAUAUGCACAGAAAGAAGGCUUAUCAAACCAAUUAAGCUUUGUUAAGGGUGACUUUAUGCAAAUGUCAUUUCCUGACAACUCAUUCGAUUCAGUGUAUGCUAUUGAGGCUACAGUCCACGCCU
B5: GS3324 (nucleic acid)
sense: CAAACUCGCUCAAUUCUCCGUAUGACUAAUUGUUCUUAUACUUAUCCUGGCGCUUCAAAACCGUCUUUGCACAAUGUGUCUUGUCAACUCUCCCUUUCAUCUCGAACUGCAAUCAUAGGUGGUAAUGGUGCAGGAAAAUCAACGUUAAUAAAACUACUUACUGGCGAGACGGUCCCUACUUCUGGGCGAGUCGAAAAACACCCUAAUUUGCGAAUUGGAUAUAUAAAACAACAUGCACUUGAACAUGUUGAAAUGCAUCUCGAGAAAACCCCAAACCAAUAUCUUCAAUGGCGCUAUGCCAAUGGUGAUGAUCGUGAGGUACAUAUGAAACAGACUCGUAUUUUAUCGGAUGCUGAUAAAGCUCAAAUGGAAAAAUGGAUUGAUAUCGAUGGGAAG
antisense: CUUCCCAUCGAUAUCAAUCCAUUUUUCCAUUUGAGCUUUAUCAGCAUCCGAUAAAAUACGAGUCUGUUUCAUAUGUACCUCACGAUCAUCACCAUUGGCAUAGCGCCAUUGAAGAUAUUGGUUUGGGGUUUUCUCGAGAUGCAUUUCAACAUGUUCAAGUGCAUGUUGUUUUAUAUAUCCAAUUCGCAAAUUAGGGUGUUUUUCGACUCGCCCAGAAGUAGGGACCGUCUCGCCAGUAAGUAGUUUUAUUAACGUUGAUUUUCCUGCACCAUUACCACCUAUGAUUGCAGUUCGAGAUGAAAGGGAGAGUUGACAAGACACAUUGUGCAAAGACGGUUUUGAAGCGCCAGGAUAAGUAUAAGAACAAUUAGUCAUACGGAGAAUUGAGCGAGUUUG
B6: GS3333 (nucleic acid)
sense: AUAAAAGACUAAUAUGAUCUAAUUUAAAUCGAACUGAUUGAAAAACAUUUGAUUUGCAAUGAAAAUUAAUAUAUAAUCAAAUAAAAUCAAAUAUUUCUCACUCUGGUGCCGGCCCGUUGUGGUAGGAAGUGACCCAACUCUUAAAUCAGGUCAGCAACAUUCAUAGGCAUCUCUUCAAUUUGAGUGCUAUAAAACUGCUCAAUUUCACGCAUCAUCCGAACAUCAUCAGCUGUUACAAAGUUGAUCGCAACACCUUUUCGUCCAAAUCGACCACCUCGACCAAUUCUGUGAAUAUAAUUCUCACGAUUAGCAGGCAAGUCGUAAUUAAUAACUAAUGAAACUUGUUGUACAUCAAUACCACGAGCAAGAAGAUCAGUGGCAAUUAAAACACGGGAUGA
antisense: UCAUCCCGUGUUUUAAUUGCCACUGAUCUUCUUGCUCGUGGUAUUGAUGUACAACAAGUUUCAUUAGUUAUUAAUUACGACUUGCCUGCUAAUCGUGAGAAUUAUAUUCACAGAAUUGGUCGAGGUGGUCGAUUUGGACGAAAAGGUGUUGCGAUCAACUUUGUAACAGCUGAUGAUGUUCGGAUGAUGCGUGAAAUUGAGCAGUUUUAUAGCACUCAAAUUGAAGAGAUGCCUAUGAAUGUUGCUGACCUGAUUUAAGAGUUGGGUCACUUCCUACCACAACGGGCCGGCACCAGAGUGAGAAAUAUUUGAUUUUAUUUGAUUAUAUAUUAAUUUUCAUUGCAAAUCAAAUGUUUUUCAAUCAGUUCGAUUUAAAUUAGAUCAUAUUAGUCUUUUAU
B7: GS1796: dsRNA trigger SEQ ID NO 211; gene target Putative aldehyde dehydrogenase-like protein C922.07c (nucleic acid)
DNA: TACCCATCCCTGGCTTAAGTATTGATTTATACATTCTAAAAGAGAGTTCGACGCATATTATGATCTACATACGGAAGTTTGGTAGGATGACGAAAACTCCTAACTTTTAAATTGAAAATTCACCAATCTGACAACATATCTATCTTATTATTGTTGCCCTAATCACTGCCTTTAATGAAGGAATAAAAAATTAAAAGATGCCCGTCACTGACTAACGCTTTTTTTTTAATTAGCCAAATTATCAGTTAACTGCAAACCAGCTACAGCGAGACGGTTTAAGCTCCCATATTTACAAAAACTGACTTGATTTGAGTGTAACCAGCTAGACCAGCTTCTCCTAGCTCCCGTCCAATTCCACTCTGTTTTACACCACCAAATGGGACCTTAAAACTTGAATCATTACTTGAATTAATCCATACCATGCCTGATTCAATTTTTCGCGCTACCCGATGAGCCCTCGTAATATCCTTGGTAAATACTGCACTACCAAGGCCATAGGTAGTATCATTTGCTATCTTTAGGGCTTCTTCTTCTGTTTTAAAGCTATTTATGACAACAAAAGGGCCGAAGACTTCTTCACGAAATATTTTCATAGATG
B8: GS3335 (nucleic acid)
sense: UUGAGUACAGAGUAGUAGUAAUCUAUUUACAUGAAUUACAAGCUUGUACGGAUGAAUGUUUGUCAUAAGCCUACUCAUCUUUCAUGGCGAAUUUCCCAGGCGGCUAACUACUCUAAUUUGUGAGAGGCAUGAAAGUAAUGAUAGAUUUUCUCUAUGUAUAAUAAAUAGUACUCGUAUUUUAAUCAUUCAAACCCUAGUGAUAUCUUUUGUACUCUUCUCUUAUCAAAUUACAUCAAGUUCAUUCCGUCAUUUCUCGUUAUAUAUGACAUAUAAAGCAUUCCAUUCGCAUGAUAGAAAAUAAGUAAUAUGUAUAAUGACUCAAAGCCUUCACCCCAUAGCCAAAAAGUUGGGUUUAUAGUGAAACUUGUGACGUAGAGGGGAUUAAUAUCGCAUUUUCU
antisense: AGAAAAUGCGAUAUUAAUCCCCUCUACGUCACAAGUUUCACUAUAAACCCAACUUUUUGGCUAUGGGGUGAAGGCUUUGAGUCAUUAUACAUAUUACUUAUUUUCUAUCAUGCGAAUGGAAUGCUUUAUAUGUCAUAUAUAACGAGAAAUGACGGAAUGAACUUGAUGUAAUUUGAUAAGAGAAGAGUACAAAAGAUAUCACUAGGGUUUGAAUGAUUAAAAUACGAGUACUAUUUAUUAUACAUAGAGAAAAUCUAUCAUUACUUUCAUGCCUCUCACAAAUUAGAGUAGUUAGCCGCCUGGGAAAUUCGCCAUGAAAGAUGAGUAGGCUUAUGACAAACAUUCAUCCGUACAAGCUUGUAAUUCAUGUAAAUAGAUUACUACUACUCUGUACUCAA

System: E. necator
Experiment: Leaf disc assay, dry inoculum (settling tower), decrease in disease severity / hyphal growth (Example 2)
Conditions: decrease in disease severity (hyphal growth) relative to untreated control, value ± SE; for % decrease =/− SE TP1: time point 1 (untreated control hyphal growth ≥50%); for % decrease =/− SE TP2: time point 2

Molecule	% decrease =/− SE TP1 [%]	% decrease =/− SE TP2 [%]
B1	23 ± 8	25 ± 7
B2	20 ± 8	5 ± 8
B3	4 ± 1	–
B4	26 ± 7	19 ± 7
B5	12 ± 7	14 ± 7
B6	5 ± 6	–
B7	–	1 ± 8
B8	12 ± 6	–

— patent publication US12077763B2, “RNA-based control of powdery mildew” (Greenlight Biosciences, Inc., priority 2021, dated 2024)
